Test [1] concerns the target Gq proteins.
Test [2] deals with Gq proteins. The source holds these as a separate data set.
Test [3] has as its target Gq proteins. This is another data set of the same source.

Consider Chicken Opn5 (receptor), for which the Ca^2+ transients (Calbryte 630 AM) in primary mouse astrocytes in test [1] was 8 ΔF/F. For the same substance, the light-induced increase in Ca^2+ signal (Calbryte 630 AM) in HEK 293T cells in test [2] is 3 ΔF/F.
As for Turtle Opn5 (receptor), in test [2], the light-induced increase in Ca^2+ signal (Calbryte 630 AM) in HEK 293T cells was 3 ΔF/F.
Regarding “human OPN4 (from UniProt Q9UHM6) (receptor)”, the Ca^2+ signal increase in HEK 293T cells in test [3] was 1 ΔF/F.
The same measure, in the same setting: the figure for opto-a1AR (receptor) is 0.5 ΔF/F.

(Values after patent US20250032577A1.)
